Tests used:
DndI [1] = target: T1, DndI (Salmonella enterica, UniProt E2D680); design: gene A6E75_01280; conditions: r3.1 buffer, 10 mM MgCl2, pH 7.9, 37 °C; without or with phosphorothioate pUC19 DNA
DndI [2] = target: T1, DndI; test: nucleoside triphosphatase assay; assay type: biochemical; design: gene A6E75_01280; full length (residues 1-596); homodimer in crystal; 1,788 bp dndI fragment cloned for FRET construct, but ORF printed elsewhere as 1,971 bp; conditions: r3.1 buffer, 10 mM MgCl2, pH 7.9, 37 °C; without or with phosphorothioate pUC19 DNA buffer presumed
DndI R87A = DndI R87A (Salmonella enterica serovar Cerro 87, UniProt E2D680 1-596, R87A); test: EMSA; conditions: protein: recombinant; tags: His (pET28a); blunt
DndI CTD = target: T2, DndI CTD (Salmonella enterica serovar Cerro 87, UniProt E2D680 239-596); test: EMSA; EMSA: 100 nM 70 bp DNA, 10 uL, NEB r3.1 buffer (composition and pH not given), 4 C, 1 h, 6% polyacrylamide gel; conditions: protein: recombinant; tags: His (pET28a); blunt
T2 sequence: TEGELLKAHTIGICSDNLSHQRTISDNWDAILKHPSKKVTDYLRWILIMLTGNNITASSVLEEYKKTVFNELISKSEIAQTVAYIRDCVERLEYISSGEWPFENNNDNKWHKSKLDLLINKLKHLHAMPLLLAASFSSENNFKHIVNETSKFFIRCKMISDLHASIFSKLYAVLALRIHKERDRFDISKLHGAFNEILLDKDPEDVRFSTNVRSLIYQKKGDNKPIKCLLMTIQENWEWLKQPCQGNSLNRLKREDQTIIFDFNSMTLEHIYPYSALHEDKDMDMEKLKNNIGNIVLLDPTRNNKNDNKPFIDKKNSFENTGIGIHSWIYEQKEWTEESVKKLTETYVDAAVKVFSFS

DndI [3] = target: T3, DndI (Salmonella enterica serovar Cerro 87, UniProt E2D680 1-596); test: as above; conditions: protein: recombinant; tags: His (pET28a); chain copies: 2; blunt
T3 sequence: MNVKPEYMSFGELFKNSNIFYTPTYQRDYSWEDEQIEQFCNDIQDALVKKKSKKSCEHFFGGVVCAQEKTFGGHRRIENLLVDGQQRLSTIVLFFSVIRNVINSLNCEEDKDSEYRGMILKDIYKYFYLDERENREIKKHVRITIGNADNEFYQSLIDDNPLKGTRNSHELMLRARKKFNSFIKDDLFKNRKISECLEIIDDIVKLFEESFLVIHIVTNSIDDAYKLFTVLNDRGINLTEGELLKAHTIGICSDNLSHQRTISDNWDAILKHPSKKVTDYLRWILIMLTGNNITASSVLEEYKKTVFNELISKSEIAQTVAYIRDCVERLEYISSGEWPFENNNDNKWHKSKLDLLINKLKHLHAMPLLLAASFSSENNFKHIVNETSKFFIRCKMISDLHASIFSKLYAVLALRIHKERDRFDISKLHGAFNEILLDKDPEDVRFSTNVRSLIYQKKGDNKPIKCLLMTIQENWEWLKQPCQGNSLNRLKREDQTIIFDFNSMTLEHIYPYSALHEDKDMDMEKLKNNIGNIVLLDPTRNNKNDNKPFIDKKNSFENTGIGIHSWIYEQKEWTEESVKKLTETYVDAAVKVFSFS

With `Nc1ncnc2c1ncn2[C@@H]1O[C@H](COP(=O)(O)OP(=O)(O)OP(=O)(O)O)[C@@H](O)[C@H]1O` [ATP] the “malachite green phosphate release” value (DndI [1]) was “DndI exhibited an intrinsic ATPase activity”.

For `Nc1nc2c(ncn2[C@@H]2O[C@H](COP(=O)(O)OP(=O)(O)OP(=O)(O)O)[C@@H](O)[C@H]2O)c(=O)[nH]1` [GTP], the nucleoside triphosphatase assay (DndI [2]) was “DndI demonstrated weak hydrolytic capabilities with regard to GTP, CTP and UTP”.

B1: 70 bp GAAC/GTTC EMSA DNA (PT-free) (dsDNA)
DNA 1: GCTGCAACAGGATGCCAATAAGACCAAAAAAACCAGCCAGCAAGCAGAGAACGACGAGAGCTGGCAATCT
DNA 2: AGATTGCCAGCTCTCGTCGTTCTCTGCTTGCTGGCTGGTTTTTTTGGTCTTATTGGCATCCTGTTGCAGC
B1 showed a Kd (DndI R87A) of 3.3 µM, a Kd (DndI CTD) of 0.66 µM and a Kd (DndI [3]) of 9.31 µM.

From article PMC11662687, “Molecular basis of the phosphorothioation-sensing antiphage defense system IscS–DndBCDE–DndI” (Nucleic Acids Research, 2024)
